# Substitutions are numbered along the chain they refer to.
# T1: human CCR7 expressed on CHO-K1 cells (human CCR7 gene-introduced stable expression cell) (human, UniProt P32248 25-378)
# T1 construct: also called hCCR7; hCCR7 gene-introduced cell
# T1 sequence: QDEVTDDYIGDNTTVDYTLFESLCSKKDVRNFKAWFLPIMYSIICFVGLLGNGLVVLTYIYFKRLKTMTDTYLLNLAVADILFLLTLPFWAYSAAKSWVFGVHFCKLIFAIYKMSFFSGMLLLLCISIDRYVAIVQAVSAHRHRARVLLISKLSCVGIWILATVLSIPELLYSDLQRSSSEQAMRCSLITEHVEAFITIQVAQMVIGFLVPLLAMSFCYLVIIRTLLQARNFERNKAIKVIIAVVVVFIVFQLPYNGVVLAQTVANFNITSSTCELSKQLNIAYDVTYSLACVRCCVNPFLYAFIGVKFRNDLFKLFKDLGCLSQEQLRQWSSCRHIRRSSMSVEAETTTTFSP
# T2: human native CCR7 on peripheral blood mononuclear cells of a healthy person (human, UniProt P32248 25-378)
# T2 construct: whole, on cells; Endogenous receptor on primary cells of a donor; kept apart from the recombinant receptor on CHO-K1 cells; also called CCR7 on PBMC
# T2 sequence (looked up): T1 sequence
# B1: anti-human CCR7 monoclonal antibody R7-11 (hybridoma FERM BP-11373) (antibody, IgG1, V domains shown)
# VH: EVQLQQSGPDLVMPGASVRISCKASGYSFTAYYMHWVKQSHGLSLEWIGRVNPNNGGTSYNRKFKDKAILTVDRSSSTAFMELRSLTSEDSAVYYCARSESDHFYAMDSWGQGNSVSVSS
# VL: DIVMTQTPLSLPVSLGDQVFISCRSSQSLVHSNGNTYLCWFLQKPGQSPKLLIYRVSNRFSGVPDRFSGSGSGTDFTLKISRVEAEDLGVYFCFQGSHVPHTFGSGTK
# notes: Mouse monoclonal antibody from hybridoma
# B2: anti-human CCR7 monoclonal antibody R7-18 (hybridoma FERM BP-11374) (antibody, IgG1, V domains shown)
# VH: EVQLQQSGPDLVKPGASVKISCKASGYSFTGYYMHWVKQSHGKSLEWIGRVNPNNGGTSYNKKFKVKAILTVDRSSSTAYMEFRSLTLEDSAVYYCARSESNNFYAMDYWGQGKSVTVSS
# VL: B1 VL with V3L, F20S, F41Y
# notes: as for B1
# B3: anti-human CCR7 monoclonal antibody R7-02 (hybridoma FERM BP-11404) (antibody, IgG2a, V domains shown)
# VH: QVQLQQSGAELERPGASVKLSCTASGFNIRDDYVHWVKQRPEQGLEWIGRIDPANGNTKYGPKFQAKATLTADTSSNTAYLQLGSLTSEDTAVYYCTRSFYDYDLFVPWGQGTLVTVSA
# VL: DAVVTQESALTTSPGETVTLTCRSSTGAVTKNNFANWVQEKPDHLFTGLIGGNNIRAPGVPARFSGSLIGDKAALSITGAQTEDEAIYFCALWYSNHWVFGGGTK
# notes: as for B1
# B4: anti-human CCR7 monoclonal antibody R7-05 (hybridoma FERM BP-11371) (antibody, IgG2b, V domains shown)
# VH: EVQLQQSGAELVRPGASVKLSCTASGFNIKDDYIHWVKQRPEQGLDWIGRVDPADGNTKYAPNFHDKATVTADTSSNTAYLQLSSLTSEDTAVYYCARSFYDYDLFASWGQGTLVTVSA
# VL: B3 VL with K31T, N32S, G51S, G52S, I55K
# notes: as for B1
# B5: anti-human CCR7 monoclonal antibody R7-09 (hybridoma FERM BP-11372) (antibody, IgG2a, V domains shown)
# VH: B4 VH with A9T, E42D, D46E, V51I, D55N, N63K, H65Q, V70I, A72S, T116S
# VL: B3 VL with E16G, T19I, K31T, N32S, T47S, G51S, I55K, I87M, S95N
# notes: as for B1
# B6: anti-human CCR7 monoclonal antibody R7-47 (hybridoma FERM BP-11376) (antibody, IgG1, V domains shown)
# VH: EVQLQQSGPDLVKPGTSVKISCKASGYKFTDFNMDWVRQRHGKSLEWIGDVNPQNGEIFYNQKFRGKATLTVVKSSSTTYLELRSLTSEDTAVYFCTRLEFDYTGSNGFAYWGQGTLVTVSA
# VL: DILMTQTPLSLPVSLGDQASISCRSSQTLVHRNGNTYLEWYLQKPGQSPKLLIYKVSNRFSGVPDRFSGRGSGTDFTLKISRVEAEDQGIYYCFQGSHDPWTFGGGTK
# notes: as for B1
# B7: anti-human CCR7 monoclonal antibody R7-25 (hybridoma FERM BP-11375) (antibody, IgG1, V domains shown)
# VH: EVMVVESGPGLMKPSQSLSLTCAVTGYSITSGYDWHWIRHFPGNILEWMGYINYSGSTNYKPSLKSRISITLDTSKNHFFLKLSSVTTEDTATYYCARGSYYSYEFAYWGQGTLVTVSA
# VL: DIVMSQSPSSLAVSVGEKVTMSCKSSQRLLYYSTQKNYLAWYQQKPGQSPKLLIFWASTRESGVPNRFTGSGSGTDFTLTINSVKAEDLAVYYCQQYYTYPTFGGGTK
# notes: as for B1
# B8: anti-human CCR7 monoclonal antibody R7-01 (hybridoma FERM BP-11369) (antibody, IgG1, V domains shown)
# VH: EVQLQQSGPELVKPGTSVKMSCKGSGYTFTDYYINWVRQSHGKSLEWIGRVNPGNGGTSYNQRFKGKATLTVDKFLSTAFMQLNSLTSEDSAVYFCARTGTYYNYDRGGFAYWGHGTLVTVSA
# VL: DVLLTQSPVSLPVSLGDQASISCRCSQNIVHINGNTYLEWFLQKPGQSPKLLIYKVSNRFSGVPDRFSGSGSGTDFTLKIRRVEAEDLGVYYCFQGSHVPHTFGSGTK
# notes: Mouse monoclonal antibody purified from hybridoma supernatant on protein G
# Target: T1, human CCR7 expressed on CHO-K1 cells …
# Experiment: flow cytometry, 10 µg/mL antibody on hCCR7 gene-introduced CHO-K1 cells, PE anti-mouse IgG
# Procedure: A 10 μg/mL solution of an anti-human CCR7 monoclonal antibody or mouse control IgG (Thermo, negative control) in PBS was prepared (hereinafter, referred to as “antibody solution”). After washing hCCR7 gene-introduced cells with PBS, the antibody solution was incubated together with the cells. Further, the cells were washed with PBS, and added with a phycoerythrin-labeled anti-mouse IgG antibody (Beckman Coulter) as a secondary antibody. Then interaction between the cells, and the anti-human CCR7 antibody or the mouse control IgG was analyzed by using a flow cytometer FACScalibur (Becton, Dickinson). FIG. 9 is a histogram showing an analytical result of interaction between hCCR7 gene-introduced cells, and mouse control IgG. FIG. 10 is a histogram showing an analytical result of interaction between a hCCR7 gene-introduced cell, and anti-human CCR7 antibody R7-47. […] In FIGS. 9 and 10, the vertical axis represents the number of cells, and the horizontal axis represents fluorescence intensity originating from phycoerythrin (PE). Of the two areas (M1, M2), the cell belonging to M2 (right area) indicates the cells that binds to the antibody. In Table 2, a percentage of specifically binding cells is represented by M2/(M1+M2).
row,Percentage of specifically binding cells (M2/(M1 + M2)) [%],Molecule
1,100,B1
2,100,B2
3,100,B3
4,100,B4
5,100,B5
6,99.9,B6
7,100,B7
8,99.8,B8

# Target: T2, human native CCR7 on peripheral blood …
# Experiment: flow cytometry, 0.5 µg antibody on 3×10^5 human PBMC, FITC anti-mouse IgG
# Procedure: From peripheral blood of a healthy person, mononuclear cells (PBMC) were isolated using Lymphoprep (Axis-Shield) according to a routine method. The isolated PBMC were suspended in a phosphate buffered saline (PBS) solution containing 1 mg/mL human gamma-globulin (Jackson Immuno Research Laboratories), and blocked by incubation at room temperature for 30 minutes. The PBMC (3×10⁵ cells) after blocking were incubated together with each anti-human CCR7 antibody (0.5 μg) or isotype control antibody (0.5 μg) at 4° C. for one hour. Thereafter, PBMC were washed three times with a washing buffer (PBS solution containing 0.1% fetal bovine serum). Then, a fluorescein isothiocyanate (FITC)-labeled anti-mouse IgG antibody (Beckman Coulter) was added as secondary antibody, and incubated at 4° C. for 1 hour. PBMC were washed again three times with the washing buffer, and then analyzed by using a flow cytometer (Beckman Coulter).
row,Percentage of specifically binding cells [%],Molecule
1,25.5,B1
2,40.5,B2
3,44.6,B3
4,37.3,B4
5,32.9,B5
6,49.3,B6
7,47,B7
8,10.8,B8

# Target: human CCR7 expressed on CHO-K1 cells (human CCR7 gene-introduced stable expression cell) (human) (UniProt P32248)
# Experiment: flow cytometry, 10 µg/mL antibody on hCCR7 gene-introduced CHO-K1 cells, PE anti-mouse IgG
row,Percentage of specifically binding cells (M2/(M1 + M2)) [%],Molecule
1,0.7,"mouse control IgG (Thermo, negative control) (antibody)"

# Target: T1, human CCR7 expressed on CHO-K1 cells …
# Experiment: cell-based or functional assay
row,50% inhibition concentration (IC50) of the intracellular Ca^2+ rise caused by 1×10^-7 M CCL21 [nM],Molecule
1,16,B1
2,11,B2
3,46,B3
4,94,B4
5,32,B5
6,7.4,B6
7,22,B7
8,340,B8

# Source: patent publication US20130195869A1 (SEKISUI CHEMICAL, published 2013)
